According to PMC12302720 (The Journal of Biological Chemistry, 2025):

What was measured:
[1] = molecular target: T1, extracellular domain of cynomolgus CD47 (CyCD47 ECD) (cynomolgus); test: ELISA
T1 chain: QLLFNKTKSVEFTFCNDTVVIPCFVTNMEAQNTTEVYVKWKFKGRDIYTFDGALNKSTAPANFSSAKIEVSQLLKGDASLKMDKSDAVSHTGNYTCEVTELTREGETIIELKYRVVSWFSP

[2] = molecular target: T2, extracellular domain of human CD47 (HuCD47 ECD) (human, UniProt Q08722); test: ELISA; plates coated with 1 ug/ml HuCD47 ECD or CyCD47 ECD in 0.1 M PBS; serially diluted antibodies, 37 °C, 2 h; bound antibody detected with anti-human Fc HRP; conditions: both partners purified
T2 construct: human CD47 extracellular domain, amino acids Gln1-Pro121; source: bought: Acro Biosystems; not shown: His6, C-terminal, kept

[3] = molecular target: T2, extracellular domain of human CD47 …; test: BLI; Octet Red96; 5 ug/ml antibody held on anti-human IgG-Fc biosensors; 2-fold dilutions of HuCD47 ECD or CyCD47 ECD in 1 x PBS, 0.1% BSA, 0.02% Tween-20; 1:1 Langmuir global fit; apparent Kd; conditions: both partners purified
[4] = molecular target: T3, extracellular domain of cynomolgus CD47 (CyCD47 ECD) (Macaca fascicularis, UniProt A0A2K5X4I2); test: as above; conditions: both partners purified
T3 construct: cynomolgus CD47 extracellular domain; source: bought: Acro Biosystems

B1: Hu5F9-G4, humanized mouse anti-human CD47 antibody (antibody, V domains shown)
VH: QVQLVQSGAEVKKPGASVKVSCKASGYTFTNYNMHWVRQAPGQRLEWMGTIYPGNDDTSYNQKFKDRVTITADTSASTAYMELSSLRSEDTAVYYCARGGYRAMDYWGQGTLVTVSS
VL: DIVMTQSPLSLPVTPGEPASISCRSSQSIVYSNGNTYLGWYLQKPGQSPQLLIYKVSNRFSGVPDRFSGSGSGTDFTLKISRVEAEDVGVYYCFQGSHVPYTFGQGTKLEIK
EC50 [1]: 0.04 µg/mL

B2: H3L2, humanized variant of 1C8 (antibody, V domains shown)
VH: QSVKESGGGLFQPGGSLRLSCSVSGFSLSSYAISWVRQAPGKGLEYIGYISSIGDPYYADWVKGRFTISRDSSTVYLQMTSLRAEDTAVYFCARSYPGNGDLGRLDIWGQGTTVTVSS
VL: DPQLTQSPSFVSASVGDRVTITCRSSQSVYRNKYLSWYQQKPGKAPKLLIYYASTLASGVPSRFSGSGSGTEFTLTISSVQPEDAATYYCAGDYSDDIENAFGQGTKVEIK
binding result [2]: binds

B3: H4L2, humanized variant of 1C8 (antibody, V domains shown)
VH: QSVKESGGGLFQPGGSLRLSCSVSGFSLSSYAISWVRQAPGKGLEYIGYISSIGDPYYADWVKGRFTISRDNSKNTVYLQMTSLRAEDTAVYFCARSYPGNGDLGRLDIWGQGTTVTVSS
VL: DPQLTQSPSFVSASVGDRVTITCRSSQSVYRNKYLSWYQQKPGKAPKLLIYYASTLASGVPSRFSGSGSGTEFTLTISSVQPEDAATYYCAGDYSDDIENAFGQGTKVEIK
binding result [2]: binds

B4: H4L3, humanized variant of 1C8 (antibody, V domains shown)
VH: QSVKESGGGLFQPGGSLRLSCSVSGFSLSSYAISWVRQAPGKGLEYIGYISSIGDPYYADWVKGRFTISRDNSKNTVYLQMTSLRAEDTAVYFCARSYPGNGDLGRLDIWGQGTTVTVSS
VL: DPMLTQSPSFLSASVGDRVTITCQSSQSVYRNKYLSWYQQKPGKAPKLLIYYASTLASGVPSRFSGSGSGTEFTLTISSLQPEDFATYYCAGDYSDDIENAFGGGTKVEIK
fold lower binding affinity than 1C8 [3]: 3 fold
binding result [4]: binds
